Measured values: article PMC10127198, “Pseudouridine-Modifying Enzymes SapB and SapH Control Entry into the Pseudouridimycin Biosynthetic Pathway” (ACS Chemical Biology, 2023)
Values belong to the compound of their own block, whether it stands above or below them.

Tests used:
[1] = biological target: SapH (Streptomyces albus DSM 40763); test: crystal structure; hanging drop vapour diffusion at 20 °C; SapH 9.9 mg/mL in 50 mM TAPS pH 8.5, 250 mM NaCl, 10% glycerol; well 0.1 M BisTRIS-propane, 0.2 M Na-K-phosphate, 27.5% PEG3350, pH 7.5; space group P212121; dimer in the asymmetric unit
SapB = biological target: T1, SapB (Streptomyces albus, UniProt A0ACH0CL45); test: LC/MS of cofactor released by boiling; assay type: binding; conditions: copurified, tightly bound
T1 construct: gene NR995_03120; N-terminal His6-tag, codon-optimized synthetic gene in pBADHisBd, E. coli TOP10
T1 sequence (A0ACH0CL45 1-509): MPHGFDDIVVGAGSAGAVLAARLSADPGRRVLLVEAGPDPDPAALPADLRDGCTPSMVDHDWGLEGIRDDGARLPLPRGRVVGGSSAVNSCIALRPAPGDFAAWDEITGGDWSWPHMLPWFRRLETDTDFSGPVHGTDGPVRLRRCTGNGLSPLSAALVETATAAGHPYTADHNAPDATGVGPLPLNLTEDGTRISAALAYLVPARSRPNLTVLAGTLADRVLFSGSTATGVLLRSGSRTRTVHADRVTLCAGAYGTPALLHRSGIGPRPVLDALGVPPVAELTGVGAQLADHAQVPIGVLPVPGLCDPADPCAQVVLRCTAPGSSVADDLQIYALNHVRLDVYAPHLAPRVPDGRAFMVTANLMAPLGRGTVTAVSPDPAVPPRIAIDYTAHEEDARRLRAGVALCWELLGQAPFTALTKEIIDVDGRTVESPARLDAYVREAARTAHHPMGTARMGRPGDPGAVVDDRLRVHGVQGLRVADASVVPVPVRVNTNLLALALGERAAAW

SapH [2] = biological target: T2, SapH (Streptomyces albus, UniProt A0ACH0CL42); test: X-ray crystallography, […] Å; assay type: binding; conditions: active site at dimer interface; non-covalent (no link to Lys289); crystals pH 7.5, 20 °C
T2 construct: gene NR995_03130; homodimer

[3] = system: O=c1[nH]c(=O)c([C@@H]2O[C@H](CO)[C@@H](O)[C@H]2O)co1; test: purified protein; conditions: 50 mM Tris-HCl pH 7.5, 10 mM NaCl, 10 mM KCl, 5 mM MgCl2, O2 as electron acceptor
[4] = system: O=c1[nH]cc([C@@H]2O[C@H](CO)[C@@H](O)[C@H]2O)c(=O)[nH]1; test: purified protein; conditions: 50 mM Tris-HCl pH 7.5, 10 mM NaCl, 10 mM KCl, 5 mM MgCl2, O2 as electron acceptor
SapH [5] = biological target: T2, SapH; test: relative activity by HPLC, coupled with SapB; assay type: biochemical; conditions: amino donor 5 mM, 1.5 mM uridine, 1 μM SapB, 2 μM SapH, pH 7.5

T2 sequence (A0ACH0CL42 entry or part of it): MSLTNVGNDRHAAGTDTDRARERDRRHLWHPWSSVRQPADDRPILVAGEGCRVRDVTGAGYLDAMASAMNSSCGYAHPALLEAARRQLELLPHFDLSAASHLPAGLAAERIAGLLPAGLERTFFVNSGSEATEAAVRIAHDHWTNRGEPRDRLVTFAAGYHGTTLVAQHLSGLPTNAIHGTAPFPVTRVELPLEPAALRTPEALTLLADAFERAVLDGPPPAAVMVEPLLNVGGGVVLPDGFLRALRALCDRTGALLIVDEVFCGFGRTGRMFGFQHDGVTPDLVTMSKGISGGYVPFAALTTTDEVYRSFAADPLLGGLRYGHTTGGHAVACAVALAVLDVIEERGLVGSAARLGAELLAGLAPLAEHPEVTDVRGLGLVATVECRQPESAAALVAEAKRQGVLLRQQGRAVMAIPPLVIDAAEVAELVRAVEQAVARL

stoichiometry N [1]: 2
Compound: SapH (enzyme)

Compound: Cc1cc2nc3c(=O)[nH]c(=O)nc-3n(C[C@H](O)[C@H](O)[C@H](O)COP(=O)(O)OP(=O)(O)OC[C@H]3O[C@@H](n4cnc5c(N)ncnc54)[C@H](O)[C@@H]3O)c2cc1C [flavin adenine dinucleotide]
LC/MS of cofactor released by boiling (SapB): LC/MS) analysis identified the SapB cofactor to be flavin adenine dinucleotide (FAD)

Compound: Cc1ncc(COP(=O)(O)O)c(CN)c1O [pyridoxamine-5′-phosphate]
X-ray crystallography, 1.55 Å (SapH [2]): The bound PLP was modeled as pyridoxamine, according to the observed electron density map

Compound: SapB (Streptomyces albus)
Km [3]: 181 ± 25 µM
kcat [3]: 0.0172 s⁻¹
kcat/Km [3]: 95 M⁻¹ s⁻¹
Km [4]: 34 ± 5 µM
kcat [4]: 0.019 s⁻¹
kcat/Km [4]: 550 M⁻¹ s⁻¹

Compound: N=C(N)NCCC[C@H](N)C(=O)O [arginine]
relative activity by HPLC, coupled with SapB (SapH [5]): shows preference for methionine, phenylalanine, and arginine
